Source: patent US20230044381A1 (GUANGDONG FEIPENG PHARMACEUTICAL, published 2023)

T1: Human ICOS-hFc (human, UniProt Q9Y6W8 21-140)
T1 construct: Bought (ACRO); also called ICOS (ACRO)
T1 sequence (looked up): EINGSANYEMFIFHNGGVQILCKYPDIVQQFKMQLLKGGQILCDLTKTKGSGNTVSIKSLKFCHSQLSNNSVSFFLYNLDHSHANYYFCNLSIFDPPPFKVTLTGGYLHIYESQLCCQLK

T2: Human CTLA4-hFc (human, UniProt P16410 37-162)
T2 construct: Bought (ACRO); also called CTLA-4 (ACRO)
T2 sequence (looked up): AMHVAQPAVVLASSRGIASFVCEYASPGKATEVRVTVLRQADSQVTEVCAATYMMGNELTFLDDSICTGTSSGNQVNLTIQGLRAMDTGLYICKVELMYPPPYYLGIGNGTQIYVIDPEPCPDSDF

T3: mouse PD1 on CHO cells (CHO-mousePD1) (mouse, UniProt Q02242 25-288)
T3 construct: whole, on cells; also called CHO-mPD1
T3 sequence (looked up): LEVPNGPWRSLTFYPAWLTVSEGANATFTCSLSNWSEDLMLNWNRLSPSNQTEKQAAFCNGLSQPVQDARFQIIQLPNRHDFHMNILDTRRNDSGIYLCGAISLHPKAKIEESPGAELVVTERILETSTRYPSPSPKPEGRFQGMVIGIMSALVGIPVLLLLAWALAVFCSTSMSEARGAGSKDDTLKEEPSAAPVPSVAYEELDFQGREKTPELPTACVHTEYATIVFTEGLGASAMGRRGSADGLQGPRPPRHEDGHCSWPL


Columns and labels:
[1] = molecular target: T1, Human ICOS-hFc; test: ELISA, antigen coated at 1 µg/ml
Procedure: (§1) To verify the specificity of the antibody binding to PD-1, the binding assay of anti-PD-1 mouse monoclonal antibody with four different CD28 family member proteins was conducted. […] Anti-mouse IgG coupled with peroxidase (HRP) was used as a secondary antibody (Sigma). The color was developed by TMB, and after reaction termination, the absorbance was read by a microplate reader.

[2] = molecular target: T2, Human CTLA4-hFc; test: ELISA, antigen coated at 1 µg/ml
Procedure: as §1

[3] = molecular target: T4, Human CD28-hFc (human, UniProt P10747 19-152); test: ELISA, antigen coated at 1 µg/ml
T4 construct: Bought (ACRO); also called CD28 (ACRO)
T4 sequence (P10747 19-152): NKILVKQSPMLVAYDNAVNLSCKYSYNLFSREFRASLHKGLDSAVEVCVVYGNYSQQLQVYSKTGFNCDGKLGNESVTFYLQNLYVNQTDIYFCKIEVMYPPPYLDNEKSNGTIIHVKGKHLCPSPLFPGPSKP
Procedure: as §1

[4] = molecular target: T3, mouse PD1 on CHO cells (CHO-mousePD1); test: flow cytometry on CHO-mousePD1 cells
Procedure: (§2) In order to evaluate binding of the anti-PD-1 mouse monoclonal antibody to CHO-hPD1, 2×10⁵ CHO-hPD1 cells and the anti-PD-1 mouse monoclonal antibody that diluted in a concentration gradient (the initial concentration was […], 3-fold serial dilution) were added to a 96-well plate. then it was incubated at 4° C. for 30 minutes. After the cells were washed once with a buffer (PBS containing 3% bovine serum albumin (BSA)), PE-labeled anti-mouse IgG(Fc) Ab (Biolegend) fluorescent secondary antibody was added, it was incubated at 4° C. for another 30 minutes. the cells were washed once with the buffer and resuspended in PBS, and then cell suspension was analyzed through flow cytometry by CytoFlex (Beckman flow cytometer), the amount of the antibody bound to the cells was measured according to the mean fluorescence intensity (MFI); the same method was used to evaluate binding of anti-PD-1 mouse monoclonal antibody to a CHO-cyno cell, and a CHO-mousePD1 (sometimes abbreviated as “CHO-mPD1” in the present invention) cell.

[5] = molecular target: T5, human PD-1 on the cell surface (CHO-hPD1 cells; PHA-activated human PBMC) (human, UniProt Q15116 25-288); test: flow cytometry on PHA-activated human PBMC
T5 construct: whole, on cells; the assay field tells which; also called CHO-PD1
T5 sequence (Q15116 25-288): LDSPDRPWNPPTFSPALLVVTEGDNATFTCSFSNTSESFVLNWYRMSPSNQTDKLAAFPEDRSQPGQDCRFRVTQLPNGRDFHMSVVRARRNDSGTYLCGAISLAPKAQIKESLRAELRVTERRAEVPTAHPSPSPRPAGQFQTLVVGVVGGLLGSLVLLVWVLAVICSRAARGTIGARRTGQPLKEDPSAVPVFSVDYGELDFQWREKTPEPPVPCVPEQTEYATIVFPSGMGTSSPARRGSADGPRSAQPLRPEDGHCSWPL
Procedure: After PBMC was obtained from fresh human peripheral blood by a lymphatic separation fluid gradient centrifugation method, the density was adjusted to 1×10⁶ cells/ml and then inoculated into T75. At the same time, PHA-L (Sigma) at a final concentration of 1 μg/ml was added to stimulate lymphocyte proliferation. After standing in an incubator supplied with 37° C. and 5% CO₂ for 3 days, cell suspension was taken out and centrifuged to remove the supernatant. Cells were resuspended in a buffer (PBS containing 3% BSA), and added into a 96-well U-shaped plate at a density of 2*10⁵ cells/well. And then the anti-PD1 antibody that prepared for a total of 10 concentration gradients (started from 30 μg/ml, diluted in a 3-fold gradient) was added. After incubation at 4° C. for 30 minutes, the plate was centrifuged at 300 g for 5 minutes, cells were washed once with the buffer, A PE-labeled goat anti-human IgG fluorescent antibody (Biolegend) was added, and incubated at 4° C. for 30 minutes; after incubation, the cells were washed once by centrifugation resuspended in PBS, and analyzed by a CytoFlex flow cytometer, to detect the amount of the antibody bound to PBMC.

[6] = molecular target: T6, PD-1-his (ACRO) recombinant protein (UniProt Q15116 25-167); test: BLI (ForteBio Octet), PD-1-his loaded on HIS1K sensor, antibody in solution
T6 construct: Bought (ACRO); loaded on a HIS1K biosensor
T6 sequence (Q15116 25-167 limits assumed): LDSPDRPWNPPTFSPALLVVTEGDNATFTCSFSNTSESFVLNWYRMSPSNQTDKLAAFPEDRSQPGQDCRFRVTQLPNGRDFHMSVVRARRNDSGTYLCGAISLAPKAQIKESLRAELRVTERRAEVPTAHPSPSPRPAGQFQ

[7] = molecular target: T5, human PD-1 on the cell surface …; test: flow cytometry on CHO-hPD1 cells
Procedure: as §2

[8] = molecular target: T7, Human PD-1-hFc (human, UniProt Q15116 25-167); test: ELISA, antigen coated at 1 µg/ml, antibody 10 µg/ml
T7 construct: Bought (ACRO); also called PD-1 (ACRO)
T7 sequence (Q15116 25-167): as the sequence (Q15116 25-167 limits assumed) above
Procedure: as §1

[9] = molecular target: T1, Human ICOS-hFc; test: as above
Procedure: as §1

[10] = molecular target: T2, Human CTLA4-hFc; test: as above
Procedure: as §1

[11] = molecular target: T4, Human CD28-hFc; test: as above
Procedure: as §1

[12] = molecular target: T5, human PD-1 on the cell surface …; test: flow cytometry, blocking of PD-L1-hFc (3 µg/ml) on CHO-hPD1 cells, mode 1 (ligand added first)
Procedure: (§3) The ability of the anti-PD-1 mouse monoclonal antibody to block the binding of the ligand to CHO-hPD1 cells was analyzed by a flow cytometer.
(§4) The plate was centrifuged at 300 g for 5 minutes, cells were washed once with a buffer, a PE-labeled goat anti-human IgG fluorescent antibody (Biolegend) was added, and incubated at 4° C. for 30 minutes. After the cells were washed once by centrifugation, the cells were resuspended in PBS, and then analyzed by a Cyto Flex flow cytometer, to detect the amount of the ligand protein bound to the cells, and the IC₅₀ value of the PD-1 antibody blocking was calculated.

[13] = molecular target: T5, human PD-1 on the cell surface …; test: flow cytometry, blocking of PD-L2-hFc (3 µg/ml) on CHO-hPD1 cells, mode 2 (antibody added first)
Procedure: as §3, §4

[14] = molecular target: T5, human PD-1 on the cell surface …; test: flow cytometry, blocking of PD-L1-hFc (3 µg/ml) on CHO-hPD1 cells, mode 2 (antibody added first)
Procedure: as §3, §4

[15] = molecular target: T5, human PD-1 on the cell surface …; test: flow cytometry, blocking of PD-L2-hFc (3 µg/ml) on CHO-hPD1 cells, mode 1 (ligand added first)
Procedure: as §3, §4

[16] = molecular target: T8, monkey PD1 on CHO cells (CHO-cynoPD1) (monkey); test: flow cytometry on CHO-cynoPD1 cells
T8 construct: whole, on cells
Procedure: as §2

Binder | binding result [1] | binding result [2] | binding result [3] | binding result [4] | EC50 [5] | Kd [6] | koff [6] | kon [6] | EC50 [7] | OD value [8] | OD value [9] | OD value [10] | OD value [11] | IC50 [12] | IC50 [13] | IC50 [14] | IC50 [15] | EC50 [16]
PD-1-76-C2 (antibody, V domains shown, Mouse monoclonal antibody from a hybridoma; also called PD-76-C2; PD-1-76-02) VH: QIQLVQSGPELKKPGETVKISCKASGYTFTNYGMNWVKQAPGKGLKWMGWINTHTGEPTYADDFKGRFAFSLETSASTAYLQIKNLKNEDVATYFCTKEGEGIGFAYWGQGTLVTVSA VL: DVLMTQTPLSLPVSLGDQASISCRSSQSIVYSNGKTYLEWYLQKPGQSPKLLIYKVSNRFSGVPDRFSGSGSGTDFTLKISRVEAEDLGVYYCFQGSHVPNTFGGGTKLEIKR | no binding (tested: 10 µg/ml) | no binding (tested: 10 µg/ml) | no binding (tested: 10 µg/ml) | no binding | 0.02 nM | < 0.001 nM | < 1e-07 s⁻¹ | 771000 M⁻¹ s⁻¹ | 0.583 nM | 2.46 OD | 0.076 OD | 0.146 OD | 0.0616 OD | 2.28 nM | 3.11 nM | 1.4 nM | 4.67 nM | 0.576 nM
PD-1-97-C2 (antibody, V domains shown, Mouse monoclonal antibody from a hybridoma; also called hybridoma clone 97) VH: EVKLVESGGGLVKPGGSLKLSCAASGFTFSSYGMSWIRQTPEKRLEWVATISGGGRDSYYPDSMKGRFAISRDNAKNNLYLQMSSLRSEDTALYYCTRQLGPAWFAYWGQGTLVTVSA VL: not shown | no binding (tested: 10 µg/ml) | no binding (tested: 10 µg/ml) | no binding (tested: 10 µg/ml) | no binding | 1.03 nM | < 0.001 nM | < 1e-07 s⁻¹ | 468000 M⁻¹ s⁻¹ | 0.745 nM | 2.37 OD | 0.0636 OD | 0.129 OD | 0.0606 OD | 2.22 nM | 3.49 nM | 1.62 nM | 7.54 nM | 0.578 nM
PD-1-112-C2 (antibody, V domains shown, Mouse monoclonal antibody from a hybridoma; also called hybridoma clone 112) VH: QVQLQQPGAELVKPGASVKLSCKASGYTFTTYYMYWVKQRPGQGLEWIGGINPSNGGTNFNEKFKSKATLTVDKSSSTAYMQLSSLTSEDSAVYYCTRRDSNYDGGFDYWGQGTTLTVSS VL: DIVLTQSPASLAVSLGQRATISCRASKSVSTSGYSYMHWYQQKPGQPPKLLIYLAYHLESGVPARFSGSGSGTDFTLNIHPVEEEDAATYYCQHSWELPITFGSGTKLEIKR | no binding (tested: 10 µg/ml) | no binding (tested: 10 µg/ml) | no binding (tested: 10 µg/ml) | no binding | 0.109 nM | 0.0435 nM | 3.18e-05 s⁻¹ | 732000 M⁻¹ s⁻¹ | 0.739 nM | 2.12 OD | 0.062 OD | 0.131 OD | 0.0625 OD | 2.57 nM | 3.73 nM | 1.55 nM | 4.61 nM | 0.463 nM
